Assay: soluble on expression in E. coli; label from the status in PepcDB or PDB records
In the case of “NSSAQLLELCTEHGLSISSLMMANELSLASEEEVKAKLWNIWQTMKTCIERGYQKEGILPGGLKLRRRAPALYRRLKAEGRNNVDPLTAMDWVDLFALSVNEQNAAGDRVVTAPTNGAAGIIPAVLCYYDTFVQEVDIDVCARYLLTAAAIGILYKKNASISGAEVGCQGEVGVACSMAAGALTEIMGGTVEHVENAAEIGMEHNLGLTCDPVGGLVQVPCIERNAMGAIKAINASRMALRGDGNHKVSLDKVIKTMMDTGKDMRSKYKETAKGGLAVN”, the “soluble on expression in E. coli” value is reported as “not soluble”.
In the case of “MSLCPLTPVGKYLLLPLWLGVRPFFRALFRIEVIGKENIPEGACIVASNHRSHLDPPVLNAVFPEPLVFLAKEELFKPPFGGILKHMRAIPLRRGSEDISTLEECVSLLKLGCKIGIFPEGTRANPGEFKRAKPGVGFLAINSGFPVLPVYIDGTDRAFPRGKKFPKPFVKVSVVIGKPLEFKGLEPSVKNYKRVANEIMEEIKKLAQSLHRKEGHHHHHH”, the “soluble on expression in E. coli” value is reported as “soluble”.
In the case of “MAHHHHHHMMYSKNDEFNVKKEMDMNLKCDNVNLDIWNTSFLNNETLNEDIFIHIGNKLLKMYYTTNHNIPSETLYSLLYEMKNGYNNVPYHNSIHAAMVTHHCNVLVSNLNTANILRDNELGALFVASLGHDIGHFGRTNIFLKNCCNFLSIIYNDKSILENYHCSYLFNILLKDENNIFKNEDPKCLLALRQQIIELILATDMSKHIKILAQFRIKSIKIKSYIEKNIILCLKMIIKAADLSHNCVDWSEHYQWVKRLVNEFYYEGDELFQMGYKINPLFDRNCHNNFIQIQRTFLKELVYPLIISLKTLDNTSITQDMINNVKRNYSKWTKI”, the “soluble on expression in E. coli” value is reported as “soluble”.
With “MLQEIPTTTPSLREARPCVLETERLTLRKPVLADVQAIASLANDRRVVEMTRRMPFPYTRDDAARFVTALPKSSDSVFLIEAEDLEPIGLVGVDWSDRDAPELGYWLGVQHWGNGYATEAARAVIDFTFEVHGAKQMISGARVINPASRNVLEKCGFQWTGVELHRFESIGSSTPVDCFRLTRGVWSSLKKWGTTKRRC” the “soluble on expression in E. coli” value was “not soluble”.
In the case of “MRLLIITGISGAGKSLVVKYLEDIGFFCVDNLPPLLIGKFAEICLKSRGKISKVALVIDIRGGELFNDLVPELNALKESGIDYEILFLEASDQVLIKRYKESRRIHPLAPEGRLIKGIKTEREILSQIRKNATYIIDTSNLTPRQLKEEILAIFVEGRKFDGMIVNIISFGFKYGIPIECDLVFDVRFIPNPYYIESMKYKTGKDEEVRNYVMSFAETAEFMTKLKDLVDFLIPNYIKEGKSQLVIGVGCTGGRHRSVAISEALFSYLCGREHRVFIDHRDIDKDGRSNRR”, the “soluble on expression in E. coli” value is reported as “soluble”.
For “SLKTIDMKYLRLLAKEYPTIAKTATEIINLEAIMNLPKGTEHFLSDVHGEYSAFEQVLRNGSGVVKRKIRDIFGAELDDAEINSLSTLIYYPEEKMDLLASETEDLQAWYRTTLFRLIELCQYVASKYTRSKVRKAMPEDFAYILEELLHENYNEDDKKLYYEEILQHIISLGRAEEFISALSLLIQQLVVDHLHIVGDVYDRGPYPDKIMDTLMNYHSLDFQWGNHDILWMGAASGSRVCAANVIRISARYLNLDILEDSYGISLRPLALFADEVYKDDPCTYFQPKNEENINYSNAEITQIARMHKAISIIQFKLEGEIINRRKEFDMDHRLLLQFIDYKKGTIHLKGKEYLLLDSHFPTINPEKPYELTDAERELIGKITAAFKNCRRLQKHVQFLYSKGSMFLTYNGNLLYHGCIPLHEDGTFMEMKLRGEKYAGRSLLEQFEILTREAYVRPTGTKEKKYACDIVWYLWTGAISSLFGKSEMTTFERYFVAEKETHTEEKNPYYKLRNNELICKQILEEFGLDGECGHIINGHTPVKEGKGESPIKANGKMLVIDGGFAKAYHKETNLAGYTLLFNSYGLQLVSHQPFTTKEDAIKNETDILSTRQVIEMEINRKRVRDTDIGAKLSEQAEDLKLLLDAYRNGLLHENR”, the “soluble on expression in E. coli” value was “soluble”.
For “MRTGKAWVWQLRRAAERTRRPFAGDNSPTFTVEHTHRMYPCHVFCNPLIGTIQMKACSRSERREGSKKMEAAKASKPDVSAVYAVDLSQRPVSQGDAAREKAALLQLARRMHEAPGEMLRRFVELAMELTGGISAGISLLEETEPPPVFRWHHLKGILSPFNGATTPRDFSPCGITLDRSAPTLTIHPERVYDWIPPGLFLPEVLLVPLYIGRTEPLGTLWIVADRIEHFHCGHAATMQELAGFIGIALKMVRSEEELQQALEQQELLTREMGHRLKNLFTILDSMVRISARSTDNKDDLVALLSGRLHALAAAHSLVKPSFSDVQGAASSLAELLSIVLEPHEQPAISGKRRLSLTGPTVLCGEQSVNGLALVFHELATNAAKYGSLCGDLGTVDVVWQIDGDDLGITWREDGGAQATSSSPASKGFGSTLVEATVIRQFGGTLSYDWRSTGLSVHIVIPLCRLAQ”, the “soluble on expression in E. coli” value was “not soluble”.
With “GESLFKGPRDYNPISSTICHLTNESDGHTTSLYGIGFGPFIITNKHLFRRNNGTLLVQSLHGVFKVKNTTTLQQHLIDGRDMIIIRMPKDFPPFPQKLKFREPQREERICLVTTNFQTKSMSSMVSDTSCTFPSSDGIFWKHWIQTKDGQAGSPLVSTRDGFIVGIHSASNFTNTNNYFTSVPKNFMELLTNQEAQQWVSGWRLNADSVLWGGHKVFMSKPEEPFQPVKEATQLMNELVYSQ” the “soluble on expression in E. coli” value was “soluble”.
In the case of “PDLYNHAIVIGYGRVGSMLAQLLQSRHVPLLVIDDNSEHVLKAHAAGIPAIRGSAAADLVLAEAHPERAKIAVLAIPQPLEAGEILAKLRALNPELTLVARAQNDAEVKHLLGHGADATVVAEHEMAHSLAEMVLSSTNH”, the “soluble on expression in E. coli” value is reported as “not soluble”.
With “MSLPINDQRFNGEDWINNPFFNLLSQHYLLANEHMNSLLENMEYGDENLAKRVRFFTRQYLDALSPANFIHTNPQLMAETLQSHGKNLLRGLHNLLSDVEAGSSRLIIKMTDTEAFKIGENLATTPGKVIFRNSMMELIQYCPRTTKAKSIPLLIVPPWINKYYILDLSPHNSLIRWLVEQGITVFIISWVNPDEEGHHHHHH” the “soluble on expression in E. coli” value was “not soluble”.
With “MAHHHHHHMVMSQRIAYVTGGMGGIGTSICQRLHKDGFRVVAGCGPNSPRRVKWLEDQKALGFDFYASEGNVGDWDSTKQAFDKVKAEVGEIDVLVNNAGITRDVVFRKMTREDWQAVIDTNLTSLFNVTKQVIDGMVERGWGRIINISSVNGQKGQFGQTNYSTAKAGIHGFTMSLAQEVATKGVTVNTVSPGYIGTDMVKAIRPDVLEKIVATIPVRRLGSPDEIGSIVAWLASEESGFSTGADFSLNGGLHMG” the “soluble on expression in E. coli” value was “soluble”.
With “MNIRERKRKHLEACLEGEVAYQKTTTGLEGFRLRYQALAGLALSEVDLTTPFLGKTLKAPFLIGAMTGGEENGERINLALAEAAEALGVGMMLGSGRILLERPEALRSFRVRKVAPKALLIANLGLAQLRRYGRDDLLRLVEMLEADALAFHVNPLQEAVQRGDTDFRGLVERLAELLPLPFPVMVKEVGHGLSREAALALRDLPLAAVDVAGAGGTSWARVEEWVRFGEVRHPELCEIGIPTARAILEVREVLPHLPLVASGGVYTGTDGAKALALGADLLAVARPLLRPALEGAERVAAWIGDYLEELRTALFAIGARNPKEARGRVERV” the “soluble on expression in E. coli” value was “soluble”.
With “MPAPDPMRGDPPHPAPPRLRSPLDPTSGDPLHPAPPRLRSPLDPTSGDPLHPAPPRLRSPLDPTSGDPLHPAPPRLRSPLVLLDGASMWFRSFFGVPSSITAPDGRPVNAVRGFIDSMAVVITQQRPNRLAVCLDLDWRPQFRVDLIPSYKAHRVAEPEPNGQPDVEEVPDELTPQVDMIMELLDAFGIAMAGAPGFEADDVLGTLATRERRDPVIVVSGDRDLLQVVADDPVPVRVLYLGRGLAKATLFGPAEVAERYGLPAHRAGAAYAELALLRGDPSDGLPGVPGVGEKTAATLLARHGSLDQIMAAADDRKTTMAKGLRTKLLAASAYIKAADRVVRVATDAPVTLSTPTDRFPLVAADPERTAELATRFGVESSIARLQKALDTLPG” the “soluble on expression in E. coli” value was “not soluble”.
In the case of “MAGTGLLALRTLPGPSWVRGSGPSVLSRLQDAAVVRPGFLSTAEEETLSRELEPELRRRRYEYDHWDAAIHGFRETEKSRWSEASRAILQRVQAAAFGPGQTLLSSVHVLDLEARGYIKPHVDSIKFCGATIAGLSLLSPSVMRLVHTQEPGEWLELLLEPGSLYILRGSARYDFSHEILRDEESFFGERRIPRGRRISVICRSLPEGMGPGESGQPPPACLEHHHHHH”, the “soluble on expression in E. coli” value is reported as “soluble”.

From the DeepSol protein solubility set
